In patent publication US20150273048A1 one finds coating concentration and fold M2e reactivity relative to parental wild type A/PR8 virus data, which are given here for one substance.

The target in this assay is M2e4x-PR8HA fusion protein (four tandem repeats of M2e fused to A/PR8 HA) on recombinant M2e4x-PR8HA influenza virus (influenza A/PR/8/34 (H1N1)) (UniProt P03452). In words: ELISA on serially coated inactivated virus. On the technique in general: In an ELISA, binding on a coated surface is turned into a signal by an enzyme label.

For “Influenza A virus M2 monoclonal antibody 14C2 (Abcam Inc., Cambridge, Mass.)”, the coating concentration at which reactivity was detected (ng/100 µl/well) was 20 and the fold M2e reactivity relative to parental wild type A/PR8 virus came out at 250 fold.
